Results published in article PMC4459106.

Substrate: CC(C)C[C@H](NC(=O)[C@H](CCCCN)NC(=O)[C@H](C)NC(=O)[C@@H]1CCCN1C(=O)[C@H](CO)NC(=O)[C@H](CCCNC(=N)N)NC(=O)[C@@H]1CCCN1)C(=O)N[C@@H](CO)C(=O)N[C@@H](Cc1ccccc1)C(=O)N[C@@H](CCC(N)=O)C(=O)N[C@@H](Cc1ccccc1)C(=O)N1CCC[C@H]1C(=O)N[C@@H](CO)C(=O)O
Assay: purified protein, by the assay type
Format: biochemical, rat (rat ERK2 numbering used throughout)
Settings: other: phosphorylation by 2 nM ppERK2, 1.6–400 μM Elk387-399, 500 μM γ-32P ATP, 25 mM HEPES pH 7.5, 10 mM MgCl2, 30 °C, Michaelis-Menten fit
Description: Kinase assays to determine the Michelis-Menten parameters for the phosphorylation of Elk387-399by ppERK2 were performed in 100 μL volumes at 30 °C in a buffer containing 25 mM HEPES pH 7.5, 50 mM KCl, 0.1 mM EDTA, 0.1 mM EGTA, 2 mM DTT, 10 mM MgCl2, and 40 μg/mL BSA. […] The reaction mixture was incubated for 10 minutes at 30 °C before initiation with 500 μM γ-^32P ATP (specific activity of 1 × 10^15 cpm/mol). Aliquots (10 μL) were spotted onto P81 filter papers at fixed times. The filter papers were washed three times for 15 minutes with 50 mM phosphoric acid to remove excess ATP and washed once with acetone for drying. The amount of phosphate incorporated into Elk387-399was determined by the associated counts per minute on a scintillation counter (Packard 1500) at a σ value of 2.

B1: ppERK2 (Rattus norvegicus) (protein)
chain: MAAAAAAGPEMVRGQVFDVGPRYTNLSYIGEGAYGMVCSAYDNLNKVRVAIKKISPFEHQTYCQRTLREIKILLRFRHENIIGINDIIRAPTIEQMKDVYIVQDLMETDLYKLLKTQHLSNDHICYFLYQILRGLKYIHSANVLHRDLKPSNLLLNTTCDLKICDFGLARVADPDHDHTGFLTEYVATRWYRAPEIMLNSKGYTKSIDIWSVGCILAEMLSNRPIFPGKHYLDQLNHILGILGSPSQEDLNCIINLKARNYLLSLPHKNKVPWNRLFPNADSKALDLLDKMLTFNPHKRIEVEQALAHPYLEQYYDPSDEPIAEAPFKFDMELDDLPKEKLKELIFEETARFQPGYRS
notes: made in house
For B1, the Km was 13.4 ± 1.1 µM and the kcat was 0.56 ± 0.1 s⁻¹.
